In patent publication US20140134179A1 (published 2014):

T1: hTEM8(ED)-Fc fusion protein (UniProt Q9H6X2 33-321)
T1 chain: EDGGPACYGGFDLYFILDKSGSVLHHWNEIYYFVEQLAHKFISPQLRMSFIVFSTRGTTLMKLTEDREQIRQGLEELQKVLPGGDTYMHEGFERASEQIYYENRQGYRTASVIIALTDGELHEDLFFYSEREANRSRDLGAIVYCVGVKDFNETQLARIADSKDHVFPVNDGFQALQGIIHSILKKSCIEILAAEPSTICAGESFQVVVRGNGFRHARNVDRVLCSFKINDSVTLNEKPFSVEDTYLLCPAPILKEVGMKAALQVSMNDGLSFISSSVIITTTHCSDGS

B1: L5 (Fab, V domains shown)
VH: QVQLVESGGGLVQPGGSLRLSCAASGFTFNSYGLSWVRQAPGKGLEWVSNISSNGSYTYYADSVKGRFTISRDNSKNTLYLQMNSLRAEDTAVYYCARAGYGLFDVWGQGTLVTVSS
VL: DIELTQPPSVSVAPGQTARISCSGDKLREYYVHWYQQKPGQAPVLVIYGDNKRPSGIPERFSGSNSGNTATLTISGTQAEDEADYYCSSWAGSRSGTVFGGGTKLTVL
B2: L1 (Fab, V domains shown)
VH: QVQLVESGGGLVQPGGSLRLSCAASGFTFNSYAMSWVRQAPGKGLEWVSLISSGSSTYYADSVKGRFTISRDNSKNTLYLQMNSLRAEDTAVYYCARAGFKFDNWGQGTLVTVSS
VL: DIELTQPPSVSVAPGQTARISCSGDSIPNYSVSWYQQKPGQAPVLVIYADSNRPSGIPERFSGSNSGNTATLTISGTQAEDEADYYCQSYDNTSPDLVFGGGTKLTVLG
B3: L1 Fab (Fab, V domains shown)
VH: B2 VH
VL: B2 VL
B4: L3 Fab (Fab, V domains shown)
VH: QVQLQQSGPGLVKPSQTLSLTCAISGDSVSTNGAAWGWIRQSPGRGLEWLGRIYYRSKWYNDYAVSVKSRITINPDTSKNQFSLQLNSVTPEDTAVYYCARMPGGFLFDLWGQGTLVTVSS
VL: DIELTQPPSVSVAPGQTARISCSGDNIRSYYAHWYQQKPGQAPVLVIYGDSKRPSGIPERFSGSNSGNTATLTISGTQAEDEADYYCSSYASHDYVFGGGTKLTVLG
B5: L3 (Fab, V domains shown)
VH: B4 VH
VL: B4 VL
B6: L2 Fab (Fab, V domains shown)
VH: QVQLKESGPALVKPTQTLTLTCTFSGFSLSTSGGGVSWIRQPPGKALEWLAHIYSNDDKSYSTSLKTRLTISKDTSKNQVVLTMTNMDPVDTATYYCARGGYFLDYWGQGTLVTVSS
VL: DIELTQPPSVSVAPGQTARISCSGDNIGGIYVHWYQQKPGQAPVLVIYADSKRPSGIPERFSGSNSGNTATLTISGTQAEDEADYYCQSYDITSLVFGGGTKLTVL
B7: L2 (Fab, V domains shown)
VH: B6 VH
VL: B6 VL

Assays:
mTEM8 = assay: ELISA
[1] = biological target: human TEM8 on CHO cells (CHO-TEM8) (UniProt Q9H6X2 33-564); assay: flow cytometry, inhibition of PA-FITC binding
[2] = biological target: T1, hTEM8(ED)-Fc fusion protein; assay: ELISA

Row | Binder | EC50 (mTEM8) [nM] | EC50 [1] [µg/mL] | EC50 [2] [nM]
1 | B1 | 0.22 |  | 
2 | B2 | 0.21 |  | 
3 | B3 |  | 0.0342 | 0.18
4 | B4 |  | 0.0364 | 
5 | B5 | 0.36 |  | 
6 | B6 |  | 0.0218 | 
7 | B7 | 0.28 |  | 
